Changes are numbered by the printed parent chain. One block for each binder: values may come before it.
What was measured:
TSLP, Q969D9 = assay: Kd (SPR)
TNFRSF9, Q07011 = assay: Kd (SPR)

B1: unnamed (protein)
chain 1: QMQLVESGGGVVQPGRSLRLSCAASGFTFRTYGMHWVRQAPGKGLEWVAVIWYDGSNKHYADSVKGRFTITRDNSKNTLNLQMNSLRAEDTAVYYCAREPPLFYSSWSLDNWGQGTMVTVSS
chain 2: SYVLTQPPSVSVAPGQTARITCGGNNLGSKSVHWYQQKPGQAPVLVVYDDSDRPSWIPERFSGSNSGNTATLTISRGEAGDEADYYCQVWDSSSDHVVFGGGTKLTVL
- Kd (TSLP, Q969D9): 0.203 nM

B2: unnamed (protein)
chain 1: B1 chain 1 with E99G, P101F, L102S, F103R, S105D, S106Y, W107F, S108A, L109M
chain 2: B1 chain 2
- Kd (TSLP, Q969D9): 557 nM

B3: unnamed (protein)
chain 1: QMQLVESGGGVVQPGRSLRLSCAASGFTFRTYGMHWVRQAPGKGLEWVAVIWYDGSNKHYADSVKGRFTITRDNSKNTLNLQMNSLRAEDTAVYYCARDESTGDYYYYMDVWGQGTMVTVSS
chain 2: B1 chain 2
- Kd (TSLP, Q969D9): 229 nM

B5: unnamed (protein)
chain 1: B3 chain 1 with A97V, D99G, E100S, S101I, G103W, D104P, Y105T, Y106E, M109L, V111Y
chain 2: B1 chain 2
- Kd (TSLP, Q969D9): 426 nM

B7: unnamed (protein)
chain 1: EVQLVQSGAEVKKPGESLRISCKGSGYTFSSYWISWVRQMPGKGLEWMGKIYPGDSYTNYSPSFQGQVTISADKSISTAYLQWSSLKASDTAMYYCTRGYGLFDYWGQGTLVTVSS
chain 2: SYELTQPPSVSVSPGQTASITCSGDNIGDQYAHWYQQKPGQSPVLVIYQDKNRPSGIPERFSGSNSGNTATLTISGTQAMDEADYYCATYTGFGSLAVFGGGTKLTVL
- Kd (TNFRSF9, Q07011): 109 nM

B8: unnamed (protein)
chain 1: B7 chain 1 with S31D, T97A, L102I
chain 2: B7 chain 2
- Kd (TNFRSF9, Q07011): 120 nM

B10: unnamed (protein)
chain 1: B7 chain 1 with D55N, T97A, Y100D, L102V
chain 2: B7 chain 2
- Kd (TNFRSF9, Q07011): 32.9 nM

B11: unnamed (protein)
chain 1: B7 chain 1 with T97A, L102I
chain 2: B7 chain 2
- Kd (TNFRSF9, Q07011): 58.6 nM

B12: unnamed (protein)
chain 1: B7 chain 1 with T28S, S31N, T97A
chain 2: B7 chain 2
- Kd (TNFRSF9, Q07011): 145 nM

B13: unnamed (protein)
chain 1: B7 chain 1 with T28S, T97A, Y100T
chain 2: B7 chain 2
- Kd (TNFRSF9, Q07011): 150 nM

B14: unnamed (protein)
chain 1: B7 chain 1 with S31N, T97A
chain 2: B7 chain 2
- Kd (TNFRSF9, Q07011): 117 nM

B16: unnamed (protein)
chain 1: B7 chain 1 with S31D, T97A
chain 2: B7 chain 2
- Kd (TNFRSF9, Q07011): 84.1 nM

More lines, now with the values ahead:

- Kd (TSLP, Q969D9): 300 nM
B4: unnamed (protein)
chain 1: B3 chain 1 with D99P, E100P, S101Y, T102Y, G103Y, D104G, Y105T, Y106T, M109F, V111Y
chain 2: B1 chain 2

- Kd (TSLP, Q969D9): 523 nM
B6: unnamed (protein)
chain 1: QMQLVESGGGVVQPGRSLRLSCAASGFTFRTYGMHWVRQAPGKGLEWVAVIWYDGSNKHYADSVKGRFTITRDNSKNTLNLQMNSLRAEDTAVYYCANLKDSRYSGSYYDYWGQGTMVTVSS
chain 2: B1 chain 2

- Kd (TNFRSF9, Q07011): 51 nM
B9: unnamed (protein)
chain 1: B7 chain 1 with S31N, T97A, Y100E
chain 2: B7 chain 2

- Kd (TNFRSF9, Q07011): 228 nM
B15: unnamed (protein)
chain 1: B7 chain 1 with T28S, T97A, L102V
chain 2: B7 chain 2

- Kd (TNFRSF9, Q07011): 51.1 nM
B17: unnamed (protein)
chain 1: B7 chain 1 with T28S, T97A
chain 2: B7 chain 2

- Kd (TNFRSF9, Q07011): 86.4 nM
B18: unnamed (protein)
chain 1: B7 chain 1 with S31N, T97A, L102I
chain 2: B7 chain 2

- Kd (TNFRSF9, Q07011): 59.4 nM
B19: unnamed (protein)
chain 1: B7 chain 1 with T97A, L102I, F103L
chain 2: B7 chain 2
